Experimental data published in US20200291070A1.
Numbered stars: 1 amine (or outer) side, 2 acyl side, 3 side chain; on linkers, the order of the positions; unused ones are H or OH. Bridge positions count the residues as written; N and C are the ends. Square brackets hold non-standard residues; d marks the D form. Ends that are not written are not given here. Tm = trimesic acid, bicyclized on Tm at the N-terminus; Trimesoyl = O=C(c1cc(C(=O)[*:2])cc(C(=O)[*:3])c1)[*:1]; 2Nal = N[C@@H](Cc1ccc2ccccc2c1)C(=O)O; Dap = NC[C@H](N)C(=O)O; βAla = NCCC(=O)O

Biological target: Recombinant GST-NEMO (from plasmid pGEX4T3-NEMO(1-196)) (UniProt Q9Y6K9)
Test: HTRF competition IC50 against peptide 7

Recombinant GST-NEMO (from plasmid pGEX4T3-NEMO(1-196)), sequence (Q9Y6K9 1-196): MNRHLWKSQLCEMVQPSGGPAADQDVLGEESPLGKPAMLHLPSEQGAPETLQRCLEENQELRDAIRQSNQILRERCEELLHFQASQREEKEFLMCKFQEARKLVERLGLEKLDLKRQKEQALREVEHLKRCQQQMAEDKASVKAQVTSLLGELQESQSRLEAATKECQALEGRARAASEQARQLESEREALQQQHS

Molecule | fold lower NEMO-binding affinity (against peptide 7) [fold]
Trimesoyl-GAAAA[Dap]F[2Nal]R[dR]R[Dap][βAla][βAla]K (linker N-6-12 via Tm) [peptide 21, Tm(GAAAA)Δ(FΦRrRΔ)-BBK] | > 100
Trimesoyl-GAIAA[Dap]F[2Nal]R[dR]R[Dap][βAla][βAla]K (linker N-6-12 via Tm) [peptide 20, Tm(GAIAA)Δ(FΦRrRΔ)-BBK] | 16

Biological target: Recombinant GST-NEMO (from plasmid pGEX4T3-NEMO(1-196)) (UniProt Q9Y6K9)
Test: HTRF competition IC50, peptide 7 against peptide 6

Molecule | fold increase in binding affinity (against peptide 6) [fold]
Trimesoyl-GWIYA[Dap]F[2Nal]R[dR]R[Dap][βAla][βAla]K (linker N-6-12 via Tm) [peptide 7, Tm(GWIYA)Δ(FΦRrRΔ)-BBK] | 5.9

Biological target: Recombinant GST-NEMO (from plasmid pGEX4T3-NEMO(1-196)) (UniProt Q9Y6K9)
Test: HTRF competition against biotin-IKKβKK/RR(701-745) on GST-NEMO; lower end tied to peptide 2 by the same paragraph

Molecule | IC50 [nM]
Trimesoyl-GWIY[Dap]F[2Nal]RRR[Dap][βAla][βAla]K (linker N-5-11 via Tm) [peptide 2, Tm(GWIY)Δ(FΦRRRΔ)-BBK] | 3400 to 28000

Biological target: Recombinant GST-NEMO (from plasmid pGEX4T3-NEMO(1-196)) (UniProt Q9Y6K9)
Test: HTRF competition IC50 against peptide 7; lower end tied to peptide 13 by Table 5 (1.7 vs 1.0 µM)

Molecule | fold decrease in potency (against peptide 7) [fold]
Trimesoyl-GWAYA[Dap]F[2Nal]R[dR]R[Dap][βAla][βAla]K (linker N-6-12 via Tm) [peptide 13, Tm(GWAYA)Δ(FΦRrRΔ)-BBK] | 2 to 3

Biological target: Recombinant GST-NEMO (from plasmid pGEX4T3-NEMO(1-196)) (UniProt Q9Y6K9)
Test: HTRF competition against biotin-IKKβKK/RR(701-745) on GST-NEMO

Molecule | IC50 [nM]
Trimesoyl-[dA]GWIY[Dap]F[2Nal]R[dR]R[Dap][βAla][βAla]K (linker N-6-12 via Tm) [peptide 10, Tm(aGWIY)Δ(FΦRrRΔ)-BBK] | 2300
Trimesoyl-GWIY[dA][Dap]F[2Nal]R[dR]R[Dap][βAla][βAla]K (linker N-6-12 via Tm) [peptide 8, Tm(GWIYa)Δ(FΦRrRΔ)-BBK] | 2900
Trimesoyl-GWIY[Dap]F[2Nal]RRR[Dap][βAla][βAla]K (linker N-5-11 via Tm) [peptide 2, Tm(GWIY)Δ(FΦRRRΔ)-BBK] | 3400
Trimesoyl-GWIYA[Dap]F[2Nal]R[dA]R[Dap][βAla][βAla]K (linker N-6-12 via Tm) [peptide 18, Tm(GWIYA)Δ(FΦRaRΔ)-BBK] | 2100
Trimesoyl-GWIY[Dap]F[2Nal]R[dR]R[Dap][βAla][βAla]K (linker N-5-11 via Tm) [peptide 6, Tm(GWIY)Δ(FΦRrRΔ)-BBK] | 5900
Trimesoyl-GAIYA[Dap]F[2Nal]R[dR]R[Dap][βAla][βAla]K (linker N-6-12 via Tm) [peptide 12, Tm(GAIYA)Δ(FΦRrRΔ)-BBK] | 3000
Trimesoyl-AGWIY[Dap]F[2Nal]R[dR]R[Dap][βAla][βAla]K (linker N-6-12 via Tm) [peptide 9, Tm(AGWIY)Δ(FΦRrRΔ)-BBK] | 2200
Trimesoyl-GWIAA[Dap]F[2Nal]R[dR]R[Dap][βAla][βAla]K (linker N-6-12 via Tm) [peptide 14, Tm(GWIAA)Δ(FΦRrRΔ)-BBK] | 2800
Trimesoyl-GAIAA[Dap]F[2Nal]R[dR]R[Dap][βAla][βAla]K (linker N-6-12 via Tm) [peptide 20, Tm(GAIAA)Δ(FΦRrRΔ)-BBK] | 16000

Results, then the molecule that gave them:

IC50 [nM] | Molecule
1900 | Trimesoyl-GWIYA[Dap]A[2Nal]R[dR]R[Dap][βAla][βAla]K (linker N-6-12 via Tm) [peptide 15, Tm(GWIYA)Δ(AΦRrRΔ)-BBK]
1700 | Trimesoyl-GWAYA[Dap]F[2Nal]R[dR]R[Dap][βAla][βAla]K (linker N-6-12 via Tm) [peptide 13, Tm(GWAYA)Δ(FΦRrRΔ)-BBK]
1500 | Trimesoyl-GWIY[Dap]F[2Nal]RRRR[Dap][βAla][βAla]K (linker N-5-12 via Tm) [peptide 3, Tm(GWIY)Δ(FΦRRRRΔ)-BBK]
1200 | peptide 19, Tm(GWIYA)Δ(FΦRrRΔ)-BBK (as printed)
1200 | Trimesoyl-AWIYA[Dap]F[2Nal]R[dR]R[Dap][βAla][βAla]K (linker N-6-12 via Tm) [peptide 11, Tm(AWIYA)Δ(FΦRrRΔ)-BBK]
1100 | Trimesoyl-GWIYA[Dap]F[2Nal]A[dR]R[Dap][βAla][βAla]K (linker N-6-12 via Tm) [peptide 17, Tm(GWIYA)Δ(FΦArRΔ)-BBK]
1000 | Trimesoyl-GWIYA[Dap]F[2Nal]R[dR]R[Dap][βAla][βAla]K (linker N-6-12 via Tm) [peptide 7, Tm(GWIYA)Δ(FΦRrRΔ)-BBK]

Biological target: Recombinant GST-NEMO (from plasmid pGEX4T3-NEMO(1-196)) (UniProt Q9Y6K9)
Test: HTRF competition IC50 against peptide 7; upper end tied to peptide 12 by Table 5 (3.0 vs 1.0 µM)

Molecule | fold decrease in potency (against peptide 7) [fold]
Trimesoyl-GAIYA[Dap]F[2Nal]R[dR]R[Dap][βAla][βAla]K (linker N-6-12 via Tm) [peptide 12, Tm(GAIYA)Δ(FΦRrRΔ)-BBK] | 2 to 3
